Test results: patent publication US20050037969A1 (ARBOR VITA, published 2005)
Ends that are not written are not given here. * marks the point of attachment. Biotin = O=C1N[C@H]2[C@H](CS[C@H]2CCCCC(=O)*)N1

Legend:
[1] = target: T1, KIAA0807 (PDZ domain)-GST fusion protein (human, UniProt Q6P0Q8 1104-1192); test: G assay competition against 1 uM BLR-1 20-mer
T1 construct: also called K807; KIAA807; not shown: glutathione S-transferase encoded by vector pGEX-3X (Pharmacia)
T1 sequence: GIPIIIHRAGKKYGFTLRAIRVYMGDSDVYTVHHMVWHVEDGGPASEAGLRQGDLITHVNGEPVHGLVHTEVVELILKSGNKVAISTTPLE

[2] = target: T2, GST-PSD95 fusion protein (PDZ domains 1-3) (human, UniProt P31016 56-395 (rat entry)); test: G assay competition on plate-bound GST-PSD95, competitor at 100 uM; blocked ligands: biotinylated Clasp 2 and CD46 (20 uM), Fas and KV1.3 (10 uM) peptides
T2 construct: also called human post-synaptic density protein 95; not shown: glutathione S-transferase encoded by vector pGEX-3X (Pharmacia)

[3] = target: T1, KIAA0807 (PDZ domain)-GST fusion protein; test: G assay competition against 10 uM DOCK2 20-mer; acetyl-STDL competing against 10 uM DOCK2 20-mer
[4] = target: T3, GST-41.8 kD protein (KIAA0751) PDZ domain fusion protein (Mus musculus (Mouse), UniProt Q9EQZ7 682-763); test: G assay competition on plate-bound GST-41.8kD; blocked ligand: 20 uM biotinylated CD49E peptide
T3 construct: also called 41 kd; hypoth; not shown: glutathione S-transferase encoded by vector pGEX-3X (Pharmacia)
T3 sequence: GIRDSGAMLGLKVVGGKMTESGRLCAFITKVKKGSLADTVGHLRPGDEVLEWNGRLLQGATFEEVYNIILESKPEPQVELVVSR

[5] = target: T2, GST-PSD95 fusion protein (PDZ domains …); test: G assay: biotinylated peptide on plate-bound GST-PDZ fusion, OD 450 nm
[6] = target: T1, KIAA0807 (PDZ domain)-GST fusion protein; test: G assay competition against 10 uM DOCK2 20-mer; 8-mer DOCK2 peptide competing against 10 uM DOCK2 20-mer

T2 sequence (P31016 other isoform, or with tags, fused parts or gaps): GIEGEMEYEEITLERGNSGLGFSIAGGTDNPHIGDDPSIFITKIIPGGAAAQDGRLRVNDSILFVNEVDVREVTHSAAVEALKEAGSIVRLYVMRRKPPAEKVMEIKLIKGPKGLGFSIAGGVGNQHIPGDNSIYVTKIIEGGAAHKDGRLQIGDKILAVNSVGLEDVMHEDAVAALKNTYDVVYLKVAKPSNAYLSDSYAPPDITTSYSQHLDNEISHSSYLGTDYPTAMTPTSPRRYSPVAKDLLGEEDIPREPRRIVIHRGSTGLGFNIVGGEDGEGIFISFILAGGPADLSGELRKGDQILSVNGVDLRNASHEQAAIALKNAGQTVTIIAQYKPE

Binder: Ac-LTTF (it is an N-acetyl tetrapeptide) [acetyl-LTTF]
- IC50 [1]: 1 µM

Binder: REVKFTSL [CD46 8-mer competitor peptide REVKFTSL (unlabeled)]
- binding result [2]: binds

Binder: Ac-STDL (it is an N-acetyl tetrapeptide) [acetyl-STDL]
- IC50 [3]: < 250 µM

Binder: TTNNNPNSAVNIKKIFTDV (also called KV13 peptide) [unlabeled 19-mer having the sequence of the C-terminus of KV1.3 (non-biotinylated AA33L)]
- binding result [2]: binds

B1: Fas (CD95) 8-mer competitor peptide RNEIQSLV (unlabeled) (peptide)
peptide: RNEIQSLV
notes: also called FAS-8-mer; 8-mer peptide corresponding to the C-terminus of CD95 (Fas)
- binding result [2]: binds

Binder: NATSLTTF (also called BLR-1 8-mer) [8-mer peptide corresponding to the C-terminus of BLR-1]
- IC50 [1]: > 100 µM

Binder: ATSDA (also called 5-mer CD49E peptide ATSDA) [CD49E 5mer]
- binding result [4]: binds

B2: 30 (peptide)
peptide: Biotin-TIYENLAPVTTFGKTIA
notes: Not the same peptide as m50 (AA19L, ending GYIA); the key gives AA55L for peptide 30; also called CD148
- binding result [5]: no binding

Binder: PDSLSTDL (also called DOCK2 8-mer) [8-mer peptide corresponding to the C-terminus of DOCK2]
- IC50 [6]: 250 µM
